The Kd is the free concentration of one partner at which half of the binding sites on the other are occupied at equilibrium, for simple one-to-one binding. The low end stands for tighter binding, the high end for weaker binding.

Here are results for two molecules from article PMC11263391, “Molecular insights into degron recognition by CRL5^ASB7 ubiquitin ligase” (Nature Communications, 2024).

In the experiment the target is ASB7-Elongin B-Elongin C ternary complex (human), Q9H672. The experiment can be described thus: ITC; peptide (0.8–4 mM) titrated into the ASB7 complex (39–156 µM); 16 °C; 20 mM Tris-HCl pH 7.5, 150 mM NaCl; MicroCal PEAQ-ITC. In general terms: In ITC the heat of successive injections is recorded.
ASB7-Elongin B-Elongin C ternary complex (human), Q9H672, sequence (Q9H672 11-318, chain 1 of 3): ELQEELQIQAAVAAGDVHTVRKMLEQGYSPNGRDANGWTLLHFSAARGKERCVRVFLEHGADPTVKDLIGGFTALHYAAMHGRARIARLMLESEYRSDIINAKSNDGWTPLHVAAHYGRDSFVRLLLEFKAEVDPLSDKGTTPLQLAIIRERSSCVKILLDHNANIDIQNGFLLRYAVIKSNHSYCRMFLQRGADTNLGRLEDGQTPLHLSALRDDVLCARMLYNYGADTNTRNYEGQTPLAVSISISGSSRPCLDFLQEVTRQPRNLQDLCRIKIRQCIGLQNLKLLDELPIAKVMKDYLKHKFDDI
ASB7-Elongin B-Elongin C ternary complex (human), Q9H672, sequence (Q15370 1-104, chain 2 of 3, further chain): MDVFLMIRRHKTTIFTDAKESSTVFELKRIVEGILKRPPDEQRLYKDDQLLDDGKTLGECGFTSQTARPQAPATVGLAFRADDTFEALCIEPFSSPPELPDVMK
ASB7-Elongin B-Elongin C ternary complex (human), Q9H672, sequence (Q15369 17-112, chain 3 of 3, further chain): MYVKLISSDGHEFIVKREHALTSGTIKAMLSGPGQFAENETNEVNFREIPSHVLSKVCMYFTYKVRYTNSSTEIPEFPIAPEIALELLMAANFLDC

For ELEKAKQECQDLKGKLEKCCRH (modifications not checked) [CEP152-degron 23-residue peptide], the Kd amounted to 3.8 µM.

In turn, ELESLMKEQDLLETKLR (modifications not checked) [LZTS1 17-residue degron] returned a fold decrease in binding affinity against the LZTS1-degron of 6 fold.
